Experiment [1] has as its target YFV CNYF01/2016 (YFV-China) 毒株膜蛋白E蛋白胞外区, C端6xHis标签, 大肠杆菌表达复性 (yellow fever virus, strain CNYF01/2016 …, UniProt Q1X881 286-683).
Experiment [2] addresses YFV China病毒 (E蛋白, 病毒颗粒上) (yellow fever virus, strain CNYF01/2016 …, UniProt Q1X881 286-683). The experiment in a line: cell-based or functional assay.

Chain of YFV China病毒 (E蛋白, 病毒颗粒上) (Q1X881 286-683, tags left off): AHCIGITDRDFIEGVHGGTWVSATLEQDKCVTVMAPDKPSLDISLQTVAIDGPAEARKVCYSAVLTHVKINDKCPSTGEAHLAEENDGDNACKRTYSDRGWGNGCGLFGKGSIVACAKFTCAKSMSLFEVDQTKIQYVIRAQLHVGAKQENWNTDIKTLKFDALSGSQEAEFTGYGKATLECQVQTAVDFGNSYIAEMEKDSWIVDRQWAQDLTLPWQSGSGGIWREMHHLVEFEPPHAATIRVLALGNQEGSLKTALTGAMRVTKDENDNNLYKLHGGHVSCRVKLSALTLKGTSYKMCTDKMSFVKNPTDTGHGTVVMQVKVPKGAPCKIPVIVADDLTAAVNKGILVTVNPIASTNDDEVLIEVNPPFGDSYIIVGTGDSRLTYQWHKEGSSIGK
Chain of YFV CNYF01/2016 (YFV-China) 毒株膜蛋白E蛋白胞外区, C端6xHis标签, 大肠杆菌表达复性 (Q1X881 286-683, tags left off): as above

B1: 人源单克隆抗体YD73 (antibody, V domains shown)
VH: QVQLVQSGAEVKKPGASVKVSCKASGYTFIAYGISWVRQAPGQGLEWMGWISAHNGNTNYAQKFQGRVTVTTDTTTRTAFMELRNLRSDDTAVYYCARAPWEYNYRSSGYYDSPYWGQGTLVTVSS
VL: EIVLTQSPGTLSLSPGERATLSCRASQSVVSTYLAWYQQKPGQAPRLLIYDTSTRATGIPDRFSGSGSGTDFTLTISRLEPEDFAVYYCQHYDSSPPWTFGQGTKVEIKR
B1: in experiment [1], the affinity, expressed as Kd, was 0.588 nM. In experiment [2], the “中和试验 IC50 (Vero细胞感染, FACS检测阳性细胞比例)” value was found to be 3.7 ng/mL.

The values above are taken from CN110343173A (INST MICROBIOLOGY CAS, dated 2019).
